In article PMC5374107, “Structure-Guided Identification of a Family of Dual Receptor-Binding PfEMP1 that Is Associated with Cerebral Malaria” (Cell Host & Microbe, 2017):

B1: PF11_0521 head structure (NTS-DBLα1.7-CIDRα1.4-DBLβ3) (domain or fragment)
chain: MGNAIPATPDPIFINESYKSARNVLENVARLIKAKATKDVKRHRNVLKGNLRNAKFYHPFSKERPYYKSACDLDYRFHSNIWSGDNTYRHPCAGRNRNRFSYEGEAECRISRITGNKTEHGACAPYRRRHLCDYIFHQVNDNYIKTSDDLLGNLLVTAKYEGESIVNSYANSGMFNVCTALARSFADIGDIIRGKDLYLGNGDYKEKVSNNLRAIFNKIYENLNDPKLKKHYQKDAPNYYKLRDDWWNANREDVWKALTCNAPYEAQYFIKPSDKEHSFSSEYCGHYKNGDPLTNLDYVPQFLRWFEEWAEEFCRIKKIKLENVKNACRDEKKRKYCSLNGFDCTQTIWKKKVFGRGNDCTNCSFKCFPYEIWLGNQREAFRKQKEKYAKEIEAYVTNRGIPKSSINNGYYKDFYNKLKEKTYNTVDEFINLLNEGRYCKKQKPEEENIDFIKTGEKGTFYRSDYCQVCPDCGVDCSSGTCIEKKDDINCGKKINYEPPHGVKPIDIIVLYSGNEEGEITKRLSEFCTDSSNNKGKNYEQWKCYYKNGDDNKCKMVKNSGNNITEEKIISFDEFFYVWVRKLLIDSIKWENELNNCIDNTSTHCNKECNKNCECFDKWVKKKEDEWKNVKNVFENKNGTSHNYYNKLNGLFKGFFFEVMDKLNKDETKWNKLIESLRTKIDSSKENIGTGNTQDTIKVLLDHLKETATICKDNNTNEACETSRNRKTNPCAKPHGKKLATVKQIAQYYKRKAYIQLNERGSRSALKGDASQGQYDRGGKADDFKTKLCEINEKHSNARSNSLNPCNGKDNNKVRFNVGTPWQSGEKIATATDVYLPPRRQHFCTSNLEYLINGGHQAILNVKNGKINHSFLGDVLLAAKYQAQHTMKDYKSKNDKEGICRAIRYSFADIGDIIKGTDLWDKDGGEIKTQNHLVTIFDKIKAQLPKDIKGKYTGTKHLELRKDWWEANRDQVWKAMQCGNDNPCSGESDHTPLHDYIPQRLRWMTEWAEWYCKEQSRLYDKLKVCEECMRKGESCTKGSGECATCKEACEEYNKEIKKWEQQWDAISYKYLMLYAKARITAINGGPGYYNTEVQEEDKPVVDFLYNLYLQNGGKKGPPPDTHRVKALIARVKRDAARNRVKRADGSSATRVTATTTITPYSTAAGYIHQEAHIGDCQKQTQFCKNKNGSDVSDTEADPTYAFRDKPHDHDTACKC
B2: ICAM-1D1D5-Fc::PF11_0521 head structure complex (complex)
chain 1: QTSVSPSKVILPRGGSVLVTCSTSCDQPKLLGIETPLPKKELLLPGNNRKVYELSNVQEDSQPMCYSNCPDGQSTAKTFLTVYWTPERVELAPLPSWQPVGKNLTLRCQVEGGAPRANLTVVLLRGEKELKREPAVGEPAEVTTTVLVRRDHHGANFSCRTELDLRPQGLELFENTSAPYQLQTFVLPATPPQLVSPRVLEVDTQGTVVCSLDGLFPVSEAQVHLALGDQRLNPTVTYGNDSFSAKASVSVTAEDEGTQRLTCAVILGNQSQETLQTVTIYSFPAPNVILTKPEVSEGTEVTVKCEAHPRAKVTLNGVPAQPLGPRAQLLLKATPEDNGRSFSCSATLEVAGQLIHKNQTRELRVLYGPRLDERDCPGNWTWPENSQQTPMCQAWGNPLPELKCLKDGTFPLPIGESVTVTRDLEGTYLCRARSTQGEVTRKVTVNVLSPRYE
chain 2: B1 chain

Assays:
Conditions in all cases: both partners purified
[1] = target: T1, Recombinant His-tagged EPCR (human, UniProt Q9UNN8 18-238, biotin (biotinylated by BirA)); assay: SPR; Biacore T-200; biotinylated EPCR immobilized to 650 RU on a CAP chip (Biotin Capture Kit); head structures injected, two-fold dilutions 500 nM to 4 nM, 30 µL/min, 240 s association, 720 s dissociation; 10 mM HEPES pH 7.4, 300 mM NaCl, 0.05% Tween-20, 2 mg/ml ssDNA; one-site kinetic model
T1 construct: endothelial protein C receptor (EPCR); also called endothelial protein C receptor; source: S2 cells, purified and biotinylated (Lau et al., 2015)
T1 sequence: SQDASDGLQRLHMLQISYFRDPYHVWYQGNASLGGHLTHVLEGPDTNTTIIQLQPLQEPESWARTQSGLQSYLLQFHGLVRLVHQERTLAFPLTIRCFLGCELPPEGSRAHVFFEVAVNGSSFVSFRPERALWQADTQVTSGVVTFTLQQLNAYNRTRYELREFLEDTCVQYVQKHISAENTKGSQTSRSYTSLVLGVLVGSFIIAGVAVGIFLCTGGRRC

ICAM-1D1D5-Fc = target: T2, ICAM-1D1D5-Fc (human); assay: SPR; Biacore T-200; ICAM-1D1D5 Fc immobilized to 1,400 RU on a CM5 chip pre-coupled to Protein A; head structures injected, two-fold dilutions 4 nM to 500 nM, 40 µL/min, 240 s association, 600 s dissociation; 10 mM HEPES pH 8.0, 300 mM NaCl, 0.05% Tween-20; one-site kinetic model
T2 construct: intercellular adhesion molecule 1 (ICAM-1), domains D1 to D5; captured on protein A by its Fc; also called ICAMD1D5; ICAM-1-Fc; source: HEK cells, recombinant (Bengtsson et al., 2013a)

[2] = target: T1, Recombinant His-tagged EPCR; assay: SPR; Biacore T-200; dual binding: ICAM-1D1D5 Fc immobilized (1,800, 2,100 or 1,500 RU) on Protein A CM5 chip, head structure injected at 250 nM for 240 s, then EPCR injected, two-fold dilutions 250 nM to 16 nM, 30 µL/min, 240 s association, 720 s dissociation; 10 mM HEPES pH 8.0, 300 mM NaCl, 0.05% Tween-20; one-site kinetic model

| Binder | Kd [1] [nM] | koff [1] [s⁻¹] | kon [1] [M⁻¹ s⁻¹] | Kd (ICAM-1D1D5-Fc) [nM] | koff (ICAM-1D1D5-Fc) [s⁻¹] | kon (ICAM-1D1D5-Fc) [M⁻¹ s⁻¹] | Kd [2] [nM] | koff [2] [s⁻¹] | kon [2] [M⁻¹ s⁻¹] |
| --- | --- | --- | --- | --- | --- | --- | --- | --- | --- |
| B1 | 1.18 | 4.5e-05 | 38100 | 2.33 | 5.41e-05 | 23200 | – | – | – |
| B2 | – | – | – | – | – | – | 11.4 | 0.000195 | 17200 |
